Measured values from paper PMC11565947 (bioRxiv, 2024).

B1: monoclonal antibody 5–1 (recombinant human IgG1) (antibody, V domains shown)
VH: QGQLVQSGPEVKKPGATVKVSCRASAYPFGNYGITWVRQVPGQGLEWVGWISAYTGHTKFPQNFQGRVTLTADTSTSTGYMELRSLTSDDTAVYYCARGPCCSSPRPYDIWGQGTMVTVSS
VL: DIQMTQSPSTLSASVGDRVTITCRASQSIDDWLAWYQHSPGKAPKLLIYRASRLESGVPSRFSGSGSGTEFTLTISSLQPDDFASYYCQQCYTYSQTFGQGTRVEIK
B2: 5–1 antigen-binding fragment (Fab) (Fab, V domains shown)
VH: B1 VH
VL: B1 VL

Key:
[1] = target: prefusion-stabilized RSV F protein (RSV prefusion F trimer) (human respiratory syncytial virus A, …, UniProt P03420, stabilised); assay: ELISA
[2] = target: T1, prefusion-stabilized hMPV F protein (hMPV prefusion F trimer) (human metapneumovirus; subgroup/strain …, stabilised); assay: cell-based or functional assay
T1 chain 1: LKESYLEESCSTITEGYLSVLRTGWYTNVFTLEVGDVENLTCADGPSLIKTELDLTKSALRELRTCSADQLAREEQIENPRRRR
T1 chain 2: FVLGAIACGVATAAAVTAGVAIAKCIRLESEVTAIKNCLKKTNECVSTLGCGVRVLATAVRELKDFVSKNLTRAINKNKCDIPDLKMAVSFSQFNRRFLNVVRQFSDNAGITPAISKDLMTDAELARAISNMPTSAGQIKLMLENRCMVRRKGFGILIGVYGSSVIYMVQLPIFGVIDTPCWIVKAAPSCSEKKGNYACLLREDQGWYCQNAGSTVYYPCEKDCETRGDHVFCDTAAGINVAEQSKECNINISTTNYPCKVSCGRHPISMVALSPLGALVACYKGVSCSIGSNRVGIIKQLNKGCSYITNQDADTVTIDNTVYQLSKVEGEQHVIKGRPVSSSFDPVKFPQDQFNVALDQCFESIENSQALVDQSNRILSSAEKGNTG

[3] = target: T2, prefusion-stabilized hMPV F construct hMPV F-DS-CavEs2-IPDS (human metapneumovirus, N-linked glycans (Asn172, Asn57)); assay: cryo-EM structure
T2 chain: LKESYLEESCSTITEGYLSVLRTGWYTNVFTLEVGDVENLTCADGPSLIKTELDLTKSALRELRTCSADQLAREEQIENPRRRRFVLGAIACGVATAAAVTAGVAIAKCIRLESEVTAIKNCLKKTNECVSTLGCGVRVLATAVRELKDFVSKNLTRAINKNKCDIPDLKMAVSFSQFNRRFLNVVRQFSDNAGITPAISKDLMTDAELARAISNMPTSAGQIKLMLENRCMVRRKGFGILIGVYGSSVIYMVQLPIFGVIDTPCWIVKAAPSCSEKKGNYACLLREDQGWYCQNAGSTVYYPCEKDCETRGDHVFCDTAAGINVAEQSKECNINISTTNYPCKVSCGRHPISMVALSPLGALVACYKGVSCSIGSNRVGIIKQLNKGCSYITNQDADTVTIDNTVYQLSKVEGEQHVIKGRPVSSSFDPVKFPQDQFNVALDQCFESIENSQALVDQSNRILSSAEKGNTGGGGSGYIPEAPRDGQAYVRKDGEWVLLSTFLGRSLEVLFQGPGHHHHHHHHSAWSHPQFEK

Binder | binding result [1] | PRNT neutralisation of hMPV 97–83 and hMPV TN/93–32, IC50 [2] [ng/mL] | stoichiometry N [3] [Fabs per trimer]
B1 | binds | < 10 | –
B2 | – | – | 3
